The record followed here is US20040086988.

Series [1] concerns L-isomer of the substrate Ac-Thr-Ile-Nle-Nle-Gln-Arg.amide.
In series [2] the test system is D-isomer of the substrate Ac-Thr-Ile-Nle-Nle-Gln-Arg.amide.
Series [3] deals with D-fluorogenic substrate 2-aminobenzoyl-Thr-Ile-Nle-Phe(p-NO2)-Gln-Arg.amide.
Series [4] deals with L-fluorogenic substrate 2-aminobenzoyl-Thr-Ile-Nle-Phe(p-NO2)-Gln-Arg.amide.

For D-[Aba^67.95(CO-S)^51-52]2 HIV-1 PR, the “cleavage of hexapeptide substrate (RP HPLC, products identified by ion spray MS)” value in series [1] was “is inactive on the L-substrate”; in series [2], “The D-enzyme cleaves only the D-substrate”. Moreover, the “cleavage of the chiral fluorogenic substrate (fluorogenic assay, corresponding chiral substrate)” value in series [3] is “the cleavage of chiral fluorogenic substrates by the D- and L-HIV-1 PR analogues”.
For the substance “D-[Aba^67.95.167.195]HIV-1 protease (HIV-1 PR)”, the figures for the “cleavage of fluorogenic substrate (increase in fluorescence)” value in series [4] and in series [3] were “the D-enzyme cleaved only the corresponding D-substrate (L-substrate not cleaved)” and “the D-enzyme cleaved only the corresponding D-substrate”, respectively.
With L-[Aba^67.95(CO-S)^51-52]2 HIV-1 PR, the “cleavage of hexapeptide substrate (RP HPLC, products identified by ion spray MS)” value in series [1] is “the L-enzyme shows full activity towards the L-substrate”; in series [2] it was “is inactive towards the D-substrate”. Also, in series [4], the “cleavage of the chiral fluorogenic substrate (fluorogenic assay, corresponding chiral substrate)” value is “the cleavage of chiral fluorogenic substrates by the D- and L-HIV-1 PR analogues”.
“L-[Aba^67.95.167.195]HIV-1 protease (HIV-1 PR)”: the “cleavage of fluorogenic substrate (increase in fluorescence)” value is recorded as “the L-enzyme cleaved only the L-substrate” in series [4] and “the L-enzyme cleaved only the L-substrate (D-substrate not cleaved)” in series [3].
